Target: T1, recombinant endonuclein (human, UniProt Q13610 2-501)
T1 construct: human endonuclein, coding region Asn2-Ser501 of the 2309.2 cDNA, in the vector pT7-PL; also called IEF SSP 9502; PWP1 (yeast homologue's name)
Assay: SPR; BIAcore 2000; endonuclein amine-coupled to a CM5 chip (3302 RU); analytes at 1 μM or 5 μM in 10 mM Hepes, 150 mM NaCl, 5 mM CaCl2, 1 mM EGTA, pH 7.4, 0.005% P20; control flow channel subtracted
Conditions: both partners purified

B1: recombinant TIP-1 as fusion protein with glutathion S-transferase (natural protein, UniProt O14907 1-124, looked up)
chain: MSYIPGQPVTAVVQRVEIHKLRQGENLILGFSIGGGIDQDPSQNPFSEDKTDKGIYVTRVSEGGPAEIAGLQIGDKIMQVNGWDMTMVTHDQARKRLTKRSEEVVRLLVTRQSLQKAVQQSMLS
notes: TIP-1, coding region of the cDNA amplified with primers from the start codon (ATG-TCC-TAC-ATC-CCG-GGC-CA) to the stop codon, in pGEX-4T3; pGEX-4T3 is known to place GST at the N-terminus; also called GST-TIP-1; source: E. coli, purified (pGEX, according to the manufacturer)
Does B1 bind?
Result: binds

— PMC2810291, “Identification and characterization of endonuclein binding proteins: evidence of modulatory effects on signal transduction and chaperone activity” (BMC Biochemistry, 2009)
